The record followed here is article PMC3185043, “A SILAC-Based Screen for Methyl-CpG Binding Proteins Identifies RBP-J as a DNA Methylation and Sequence-Specific Binding Protein”.

Data set [1] addresses RBP-J (GST-tagged, purified) (Homo sapiens, UniProt Q06330 1-500). Kind of data set: EMSA; multiple shifts; supershift with one of two antibodies; EMSA: 20 mM HEPES pH 7.9, 1 mM EDTA, 3 mM MgCl2, 10 mM beta-mercaptoethanol, 10% glycerol, 0.1% Triton X-100, 2 ug BSA, 10 ng poly(dI-dC), 30 min on ice; pull-down: 150 mM NaCl, 50 mM Tris pH 8.0, 0.25% NP40, 0.5 mM DTT, poly(dI-dC), 2 h 4 C. The conditions noted are these: protein: recombinant; tags: His/GST; label: 32P. In general terms: In EMSA bound probe runs differently from free probe, usually more slowly.

Data set [2] deals with MBD2b (GST-tagged, purified) (Homo sapiens, UniProt Q9UBB5 150-411). Nature of the data set: EMSA; multiple shifts; EMSA: 20 mM HEPES pH 7.9, 1 mM EDTA, 3 mM MgCl2, 10 mM beta-mercaptoethanol, 10% glycerol, 0.1% Triton X-100, 2 ug BSA, 10 ng poly(dI-dC), 30 min on ice; pull-down: 150 mM NaCl, 50 mM Tris pH 8.0, 0.25% NP40, 0.5 mM DTT, poly(dI-dC), 2 h 4 C. The conditions noted are these: protein: recombinant; tags: GST; label: 32P.
MBD2b (GST-tagged, purified), sequence (Q9UBB5 150-411): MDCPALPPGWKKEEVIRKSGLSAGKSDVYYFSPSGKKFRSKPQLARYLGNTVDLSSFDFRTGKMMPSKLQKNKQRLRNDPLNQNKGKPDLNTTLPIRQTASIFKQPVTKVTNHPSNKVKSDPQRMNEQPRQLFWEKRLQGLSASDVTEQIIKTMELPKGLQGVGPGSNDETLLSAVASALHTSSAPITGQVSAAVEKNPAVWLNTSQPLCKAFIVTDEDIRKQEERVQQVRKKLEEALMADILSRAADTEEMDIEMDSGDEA

RBP-J (GST-tagged, purified), sequence (Q06330 whole entry): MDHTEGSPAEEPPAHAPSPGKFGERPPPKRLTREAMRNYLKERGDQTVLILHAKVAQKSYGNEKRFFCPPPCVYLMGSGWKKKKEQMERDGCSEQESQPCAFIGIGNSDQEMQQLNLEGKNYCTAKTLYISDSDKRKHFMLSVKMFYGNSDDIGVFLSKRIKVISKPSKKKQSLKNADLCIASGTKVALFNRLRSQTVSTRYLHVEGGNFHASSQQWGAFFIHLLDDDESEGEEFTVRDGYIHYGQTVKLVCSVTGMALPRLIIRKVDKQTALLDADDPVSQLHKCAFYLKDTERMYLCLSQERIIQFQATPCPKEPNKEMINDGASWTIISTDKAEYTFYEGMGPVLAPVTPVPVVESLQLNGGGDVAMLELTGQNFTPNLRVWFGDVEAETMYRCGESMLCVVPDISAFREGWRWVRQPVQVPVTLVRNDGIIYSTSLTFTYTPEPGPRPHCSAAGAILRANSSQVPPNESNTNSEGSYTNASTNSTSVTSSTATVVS

B1: GSTP1 CpG-island oligo, methylated (EMSA) (dsDNA)
DNA 1: AAGCAGACACTGGCAGGTTTCGGCGGGAGTCCGCGGGACCCTCCAGAAGAGCGGCCGGCGCCGTGACCTAAGGCTAAGGCTCATA
DNA 2: TTTATGAGCCTTAGCCTTAGGTCACGGCGCCGGCCGCTCTTCTGGAGGGTCCCGCGGACTCCCGCCGAAACCTGCCAGTGTCTGC
modifications: 5-methylcytosine at CpG (M.SssI)
Turning to B1, the binding result in data set [1] and in data set [2] was “binds” each time.
